# Earlier results, collected in patent US20210330752A1, “FEED SUPPLEMENTS” (OmniGen Research, LLC, priority 2018, published 2021).
# Tested on: binding protein
substance,measurement,value
Insulin-like growth factor-1 [IGF-1],IGF-1 in plasma bound to a binding protein,more than 99%
